# Laboratory results reported in patent US20150093398A1, “Methods and Compositions for Treating or Preventing Cancer” (MERCK SHARP & DOHME CORP., priority 2005, published 2015).
# B1: 19D12: anti-IGF1R antibody: light chain variable region amino acids 20-128 of SEQ ID NO: 8, heavy chain variable region amino acids 20-137 of SEQ ID NO: 10 (antibody, V domains shown)
# VL: MSPSQLIGFLLLWVPASRGEIVLTQSPGTLSVSPGERATLSCRASQSIGSSLHWYQQKPGQAPRLLIKYASQSLSGIPDRFSGSGSGTDFTLTISRLEPEDFAVYYCHQSSRLPHTFGQGTKVEIKRT
# VH: MEFGLSWVFLVAILKGVQCEVQLVQSGGGLVKPGGSLRLSCAASGFTFSSFAMHWVRQAPGKGLEWISVIDTRGATYYADSVKGRFTISRDNAKNSLYLQMNSLRAEDTAVYYCARLGNFYYGMDVWGQGTTVTVSS
# modifications: variable regions only: LC 20-128, HC 20-137; constant regions lack entries
# How the values were obtained:
# Format in all cases: in vivo, Athymic nude mice
# [1] = system: SK-N-AS neuroblatoma cells; test: SK-N-AS neuroblastoma xenograft tumor growth in mice (03 IGFR-09, 19D12 vs. Cytoxan)
# Description: Athymic nude mice were inoculated with tumor cells in the right flank, subcutaneously, along with Matrigel (1:1 cells:gel). In these experiments, 5×10^6 cells/mouse in a 1:1 mix with regular matrigel were inoculated subcutaneously. Tumor size was measured with calipers and the data was entered into the labcat program. Mice were grouped with average size of 100 mm^3. Tumor size and body weight were measured twice weekly.
# In these experiments, mice were dosed twice per week, intraperitoneally (i.p.) with antibody 19D12 and chemotherapeutic agents at the indicated frequency. Tumor size and mouse body weight was measured twice weekly after treatment.
# [2] = system: SK-N-MC neuroblastoma cells; test: SK-N-MC neuroblastoma xenograft tumor growth in mice (04 IGFR-13, 19D12 vs. Cisplatin)
# [3] = system: SK-N-FI neuroblastoma cells; test: SK-N-FI neuroblastoma xenograft tumor growth in mice (04 IGFR-20)
molecule,measurement,setting,value
B1,Tumor Average Size,"[1]; 0.004 mg 19D12/IgG1, Day 4",335 mm^3
same,Tumor Average Size,"[1]; 0.004 mg 19D12/IgG1, Day 7",568 mm^3
same,Tumor Average Size,"[1]; 0.004 mg 19D12/IgG1, Day 11",1314 mm^3
same,Tumor Average Size,"[1]; 0.004 mg 19D12/IgG1, Day -1",142 mm^3
same,Tumor Average Size,"[1]; 0.02 mg 19D12/IgG1, Day 4",231 mm^3
same,Tumor Average Size,"[1]; 0.02 mg 19D12/IgG1, Day 7",307 mm^3
same,Tumor Average Size,"[1]; 0.02 mg 19D12/IgG1, Day 11",547 mm^3
same,Tumor Average Size,"[1]; 0.02 mg 19D12/IgG1, Day -1",137 mm^3
same,Tumor Average Size,"[1]; 0.1 mg 19D12/IgG1, Day 4",249 mm^3
same,Tumor Average Size,"[1]; 0.1 mg 19D12/IgG1, Day 7",321 mm^3
same,Tumor Average Size,"[1]; 0.1 mg 19D12/IgG1, Day 11",615 mm^3
same,Tumor Average Size,"[1]; 0.1 mg 19D12/IgG1, Day -1",135 mm^3
same,Tumor Average Size,"[1]; 0.5 mg 19D12/IgG1, Day 4",205 mm^3
same,Tumor Average Size,"[1]; 0.5 mg 19D12/IgG1, Day 7",273 mm^3
same,Tumor Average Size,"[1]; 0.5 mg 19D12/IgG1, Day 11",492 mm^3
same,Tumor Average Size,"[1]; 0.5 mg 19D12/IgG1, Day -1",123 mm^3
same,Tumor Average Size,"[2]; 0.004 mg 19D12, Day 0",89 mm^3
same,Tumor Average Size,"[2]; 0.004 mg 19D12, Day 2",120 mm^3
same,Tumor Average Size,"[2]; 0.004 mg 19D12, Day 6",146 mm^3
same,Tumor Average Size,"[2]; 0.004 mg 19D12, Day 9",177 mm^3
same,Tumor Average Size,"[2]; 0.004 mg 19D12, Day 13",212 mm^3
same,Tumor Average Size,"[2]; 0.004 mg 19D12, Day 16",235 mm^3
same,Tumor Average Size,"[2]; 0.004 mg 19D12, Day 20",292 mm^3
same,Tumor Average Size,"[2]; 0.004 mg 19D12, Day 23",331 mm^3
same,Tumor Average Size,"[2]; 0.004 mg 19D12, Day 24",331 mm^3
same,Tumor Average Size,"[2]; 0.02 mg 19D12, Day 0",97 mm^3
same,Tumor Average Size,"[2]; 0.02 mg 19D12, Day 2",122 mm^3
same,Tumor Average Size,"[2]; 0.02 mg 19D12, Day 6",151 mm^3
same,Tumor Average Size,"[2]; 0.02 mg 19D12, Day 9",189 mm^3
same,Tumor Average Size,"[2]; 0.02 mg 19D12, Day 13",222 mm^3
same,Tumor Average Size,"[2]; 0.02 mg 19D12, Day 16",248 mm^3
same,Tumor Average Size,"[2]; 0.02 mg 19D12, Day 20",292 mm^3
same,Tumor Average Size,"[2]; 0.02 mg 19D12, Day 23",344 mm^3
same,Tumor Average Size,"[2]; 0.02 mg 19D12, Day 24",344 mm^3
same,Tumor Average Size,"[2]; 0.1 mg 19D12, Day 0",89 mm^3
same,Tumor Average Size,"[2]; 0.1 mg 19D12, Day 2",115 mm^3
same,Tumor Average Size,"[2]; 0.1 mg 19D12, Day 6",144 mm^3
same,Tumor Average Size,"[2]; 0.1 mg 19D12, Day 9",193 mm^3
same,Tumor Average Size,"[2]; 0.1 mg 19D12, Day 13",226 mm^3
same,Tumor Average Size,"[2]; 0.1 mg 19D12, Day 16",245 mm^3
same,Tumor Average Size,"[2]; 0.1 mg 19D12, Day 20",282 mm^3
same,Tumor Average Size,"[2]; 0.1 mg 19D12, Day 23",335 mm^3
same,Tumor Average Size,"[2]; 0.1 mg 19D12, Day 24",335 mm^3
same,Tumor Average Size,"[2]; 0.5 mg 19D12, Day 0",83 mm^3
same,Tumor Average Size,"[2]; 0.5 mg 19D12, Day 2",107 mm^3
same,Tumor Average Size,"[2]; 0.5 mg 19D12, Day 6",133 mm^3
same,Tumor Average Size,"[2]; 0.5 mg 19D12, Day 9",173 mm^3
same,Tumor Average Size,"[2]; 0.5 mg 19D12, Day 13",210 mm^3
same,Tumor Average Size,"[2]; 0.5 mg 19D12, Day 16",234 mm^3
same,Tumor Average Size,"[2]; 0.5 mg 19D12, Day 20",264 mm^3
same,Tumor Average Size,"[2]; 0.5 mg 19D12, Day 23",317 mm^3
same,Tumor Average Size,"[2]; 0.5 mg 19D12, Day 24",317 mm^3
same,Tumor Average Size,"[3]; 0.02 mg 19D12, Day 0",150 mm^3
same,Tumor Average Size,"[3]; 0.02 mg 19D12, Day 5",181 mm^3
same,Tumor Average Size,"[3]; 0.02 mg 19D12, Day 8",204 mm^3
same,Tumor Average Size,"[3]; 0.02 mg 19D12, Day 12",207 mm^3
same,Tumor Average Size,"[3]; 0.02 mg 19D12, Day 15",217 mm^3
same,Tumor Average Size,"[3]; 0.02 mg 19D12, Day 19",237 mm^3
same,Tumor Average Size,"[3]; 0.02 mg 19D12, Day 22",290 mm^3
same,Tumor Average Size,"[3]; 0.1 mg 19D12, Day 0",151 mm^3
same,Tumor Average Size,"[3]; 0.1 mg 19D12, Day 5",164 mm^3
same,Tumor Average Size,"[3]; 0.1 mg 19D12, Day 8",146 mm^3
same,Tumor Average Size,"[3]; 0.1 mg 19D12, Day 12",154 mm^3
same,Tumor Average Size,"[3]; 0.1 mg 19D12, Day 15",141 mm^3
same,Tumor Average Size,"[3]; 0.1 mg 19D12, Day 19",154 mm^3
same,Tumor Average Size,"[3]; 0.1 mg 19D12, Day 22",170 mm^3
same,Tumor Average Size,"[3]; 1 mg 19D12, Day 0",155 mm^3
same,Tumor Average Size,"[3]; 1 mg 19D12, Day 5",161 mm^3
same,Tumor Average Size,"[3]; 1 mg 19D12, Day 8",128 mm^3
